Data reported in paper doi:10.1101/2025.05.22.655130v1.

Substrate: O=[N+]([O-])c1ccc(O[C@@H]2O[C@H](CO)[C@@H](O)[C@H](O)[C@H]2O)cc1
Test: purified protein
Type: biochemical, Paenibacillus polymyxa
Conditions: 0.11-100 mM substrate, readings every minute for 15 min; triplicate

Protein | Km [mM] | kcat [s⁻¹]
β-glucosidase B (BglB) (Paenibacillus polymyxa; L339M) (protein) MSENTFIFPATFMWGTSTSSYQIEGGTDEGGRTPSIWDTFCQIPGKVIGGDCGDVACDHFHHFKEDVQLMKQLGFLHYRFSVAWPRIMPAAGIINEEGLLFYEHLLDEIELAGLIPMLTLYHWDLPQWIEDEGGWTQRETIQHFKTYASVIMDRFGERINWWNTINEPYCASILGYGTGEHAPGHENWREAFTAAHHILMCHGIASNLHKEKGLTGKIGITLNMEHVDAASERPEDVAAAIRRDGFINRWFAEPLFNGKYPEDMVEWYGTYLNGLDFVQPGDMELIQQPGDFLGINYYTRSIIRSTNDASLLQVEQVHMEEPVTDMGWEIHPESFYKLMTRIEKDFSKGLPILITENGAAMRDELVNGQIEDTGRHGYIEEHLKACHRFIEEGGQLKGYFVWSFLDNFEWAWGYSKRFGIVHINYETQERTPKQSALWFKQMMAKNGF | 4.72 ± 0.82 | 6.58 ± 0.302
β-glucosidase B (BglB) (Paenibacillus polymyxa; L339S) (protein) MSENTFIFPATFMWGTSTSSYQIEGGTDEGGRTPSIWDTFCQIPGKVIGGDCGDVACDHFHHFKEDVQLMKQLGFLHYRFSVAWPRIMPAAGIINEEGLLFYEHLLDEIELAGLIPMLTLYHWDLPQWIEDEGGWTQRETIQHFKTYASVIMDRFGERINWWNTINEPYCASILGYGTGEHAPGHENWREAFTAAHHILMCHGIASNLHKEKGLTGKIGITLNMEHVDAASERPEDVAAAIRRDGFINRWFAEPLFNGKYPEDMVEWYGTYLNGLDFVQPGDMELIQQPGDFLGINYYTRSIIRSTNDASLLQVEQVHMEEPVTDMGWEIHPESFYKLSTRIEKDFSKGLPILITENGAAMRDELVNGQIEDTGRHGYIEEHLKACHRFIEEGGQLKGYFVWSFLDNFEWAWGYSKRFGIVHINYETQERTPKQSALWFKQMMAKNGF | 4.44 ± 0.62 | 9.53 ± 0.348
β-glucosidase B (BglB) (Paenibacillus polymyxa; L339H) (protein) MSENTFIFPATFMWGTSTSSYQIEGGTDEGGRTPSIWDTFCQIPGKVIGGDCGDVACDHFHHFKEDVQLMKQLGFLHYRFSVAWPRIMPAAGIINEEGLLFYEHLLDEIELAGLIPMLTLYHWDLPQWIEDEGGWTQRETIQHFKTYASVIMDRFGERINWWNTINEPYCASILGYGTGEHAPGHENWREAFTAAHHILMCHGIASNLHKEKGLTGKIGITLNMEHVDAASERPEDVAAAIRRDGFINRWFAEPLFNGKYPEDMVEWYGTYLNGLDFVQPGDMELIQQPGDFLGINYYTRSIIRSTNDASLLQVEQVHMEEPVTDMGWEIHPESFYKLHTRIEKDFSKGLPILITENGAAMRDELVNGQIEDTGRHGYIEEHLKACHRFIEEGGQLKGYFVWSFLDNFEWAWGYSKRFGIVHINYETQERTPKQSALWFKQMMAKNGF | 3.55 ± 0.26 | 11.2 ± 0.222
β-glucosidase B (BglB) (Paenibacillus polymyxa; D38E) (protein) MSENTFIFPATFMWGTSTSSYQIEGGTDEGGRTPSIWETFCQIPGKVIGGDCGDVACDHFHHFKEDVQLMKQLGFLHYRFSVAWPRIMPAAGIINEEGLLFYEHLLDEIELAGLIPMLTLYHWDLPQWIEDEGGWTQRETIQHFKTYASVIMDRFGERINWWNTINEPYCASILGYGTGEHAPGHENWREAFTAAHHILMCHGIASNLHKEKGLTGKIGITLNMEHVDAASERPEDVAAAIRRDGFINRWFAEPLFNGKYPEDMVEWYGTYLNGLDFVQPGDMELIQQPGDFLGINYYTRSIIRSTNDASLLQVEQVHMEEPVTDMGWEIHPESFYKLLTRIEKDFSKGLPILITENGAAMRDELVNGQIEDTGRHGYIEEHLKACHRFIEEGGQLKGYFVWSFLDNFEWAWGYSKRFGIVHINYETQERTPKQSALWFKQMMAKNGF | 2.72 ± 0.31 | 0.272 ± 0.00667
β-glucosidase B (BglB) (Paenibacillus polymyxa; D38W) (protein) MSENTFIFPATFMWGTSTSSYQIEGGTDEGGRTPSIWWTFCQIPGKVIGGDCGDVACDHFHHFKEDVQLMKQLGFLHYRFSVAWPRIMPAAGIINEEGLLFYEHLLDEIELAGLIPMLTLYHWDLPQWIEDEGGWTQRETIQHFKTYASVIMDRFGERINWWNTINEPYCASILGYGTGEHAPGHENWREAFTAAHHILMCHGIASNLHKEKGLTGKIGITLNMEHVDAASERPEDVAAAIRRDGFINRWFAEPLFNGKYPEDMVEWYGTYLNGLDFVQPGDMELIQQPGDFLGINYYTRSIIRSTNDASLLQVEQVHMEEPVTDMGWEIHPESFYKLLTRIEKDFSKGLPILITENGAAMRDELVNGQIEDTGRHGYIEEHLKACHRFIEEGGQLKGYFVWSFLDNFEWAWGYSKRFGIVHINYETQERTPKQSALWFKQMMAKNGF | 2.80 ± 0.55 | 0.217 ± 0.01
β-glucosidase B (BglB) (Paenibacillus polymyxa; L339A) (protein) MSENTFIFPATFMWGTSTSSYQIEGGTDEGGRTPSIWDTFCQIPGKVIGGDCGDVACDHFHHFKEDVQLMKQLGFLHYRFSVAWPRIMPAAGIINEEGLLFYEHLLDEIELAGLIPMLTLYHWDLPQWIEDEGGWTQRETIQHFKTYASVIMDRFGERINWWNTINEPYCASILGYGTGEHAPGHENWREAFTAAHHILMCHGIASNLHKEKGLTGKIGITLNMEHVDAASERPEDVAAAIRRDGFINRWFAEPLFNGKYPEDMVEWYGTYLNGLDFVQPGDMELIQQPGDFLGINYYTRSIIRSTNDASLLQVEQVHMEEPVTDMGWEIHPESFYKLATRIEKDFSKGLPILITENGAAMRDELVNGQIEDTGRHGYIEEHLKACHRFIEEGGQLKGYFVWSFLDNFEWAWGYSKRFGIVHINYETQERTPKQSALWFKQMMAKNGF | 24.3 ± 1.65 | 9.47 ± 0.248
